How the values were obtained:
[1] = molecular target: ANPFAP, internally-quenched FRET peptide substrate for FAP (Li et al. 2012)
[2] = molecular target: T1, GP probe: fluorescence-quenched peptide of the region flanking the C-terminal human FGF21 cleavage site (VGPSQG)
T1 chain: VGPSQGK

[3] = molecular target: EP probe: fluorescence-quenched peptide of the homologous region of murine FGF21

B1: Human prolyl oligopeptidase (PREP, 4308-SE) (protein)
chain: MLSLQYPDVYRDETAVQDYHGHKICDPYAWLEDPDSEQTKAFVEAQNKITVPFLEQCPIRGLYKERMTELYDYPKYSCHFKKGKRYFYFYNTGLQNQRVLYVQDSLEGEARVFLDPNILSDDGTVALRGYAFSEDGEYFAYGLSASGSDWVTIKFMKVDGAKELPDVLERVKFSCMAWTHDGKGMFYNSYPQQDGKSDGTETSTNLHQKLYYHVLGTDQSEDILCAEFPDEPKWMGGAELSDDGRYVLLSIREGCDPVNRLWYCDLQQESSGIAGILKWVKLIDNFEGEYDYVTNEGTVFTFKTNRQSPNYRVINIDFRDPEESKWKVLVPEHEKDVLEWIACVRSNFLVLCYLHDVKNILQLHDLTTGALLKTFPLDVGSIVGYSGQKKDTEIFYQFTSFLSPGIIYHCDLTKEELEPRVFREVTVKGIDASDYQTVQIFYPSKDGTKIPMFIVHKKGIKLDGSHPAFLYGYGGFNISITPNYSVSRLIFVRHMGGILAVANIRGGGEYGETWHKGGILANKQNCFDDFQCAAEYLIKEGYTSPKRLTINGGSNGGLLVAACANQRPDLFGCVIAQVGVMDMLKFHKYTIGHAWTTDYGCSDSKQHFEWLVKYSPLHNVKLPEADDIQYPSMLLLTADHDDRVVPLHSLKFIATLQYIVGRSRKQSNPLLIHVDTKAGHGAGKPTAKVIEEVSDMFAFIARCLNVDWIP
Question: What does the source list for B1?
Answer: cleavage of quenched-FRET peptide, 10 nM enzyme [1]: both FAP and PREP efficiently cleave ANPFAP in vitro; cleavage of fluorescence-quenched peptide (FRET-quench assay), 1 nM enzyme [2]: both enzymes readily cleaved the GP peptide

B2: FAP in mouse plasma (protein)
chain: IVLRPSRVYKPEGNTKRALTLKDILNGTFSYKTYFPNWISEQEYLHQSEDDNIVFYNIETRESYIILSNSTMKSVNATDYGLSPDRQFVYLESDYSKLWRYSYTATYYIYDLQNGEFVRGYELPRPIQYLCWSPVGSKLAYVYQNNIYLKQRPGDPPFQITYTGRENRIFNGIPDWVYEEEMLATKYALWWSPDGKFLAYVEFNDSDIPIIAYSYYGDGQYPRTINIPYPKAGAKNPVVRVFIVDTTYPHHVGPMEVPVPEMIASSDYYFSWLTWVSSERVCLQWLKRVQNVSVLSICDFREDWHAWECPKNQEHVEESRTGWAGGFFVSTPAFSQDATSYYKIFSDKDGYKHIHYIKDTVENAIQITSGKWEAIYIFRVTQDSLFYSSNEFEGYPGRRNIYRISIGNSPPSKKCVTCHLRKERCQYYTASFSYKAKYYALVCYGPGLPISTLHDGRTDQEIQVLEENKELENSLRNIQLPKVEIKKLKDGGLTFWYKMILPPQFDRSKKYPLLIQVYGGPCSQSVKSVFAVNWITYLASKEGIVIALVDGRGTAFQGDKFLHAVYRKLGVYEVEDQLTAVRKFIEMGFIDEERIAIWGWSYGGYVSSLALASGTGLFKCGIAVAPVSSWEYYASIYSERFMGLPTKDDNLEHYKNSTVMARAEYFRNVDYLLIHGTADDNVHFQNSAQIAKALVNAQVDFQAMWYSDQNHGISSGRSQNHLYTHMTHFLKQCFSLSD
Question: For B2, which “cleavage of the GP probe in mouse plasma, with cpd60 and KYP-2047” value [2] is on record?
Answer: The value was “FAP is the major enzyme responsible for the cleavage of the GP probe in plasma”.

B3: N-terminal octa-His-tagged mouse FAP protein containing the extracellular domain (residues L26-D761) (protein)
chain: LRPSRVYKPEGNTKRALTLKDILNGTFSYKTYFPNWISEQEYLHQSEDDNIVFYNIETRESYIILSNSTMKSVNATDYGLSPDRQFVYLESDYSKLWRYSYTATYYIYDLQNGEFVRGYELPRPIQYLCWSPVGSKLAYVYQNNIYLKQRPGDPPFQITYTGRENRIFNGIPDWVYEEEMLATKYALWWSPDGKFLAYVEFNDSDIPIIAYSYYGDGQYPRTINIPYPKAGAKNPVVRVFIVDTTYPHHVGPMEVPVPEMIASSDYYFSWLTWVSSERVCLQWLKRVQNVSVLSICDFREDWHAWECPKNQEHVEESRTGWAGGFFVSTPAFSQDATSYYKIFSDKDGYKHIHYIKDTVENAIQITSGKWEAIYIFRVTQDSLFYSSNEFEGYPGRRNIYRISIGNSPPSKKCVTCHLRKERCQYYTASFSYKAKYYALVCYGPGLPISTLHDGRTDQEIQVLEENKELENSLRNIQLPKVEIKKLKDGGLTFWYKMILPPQFDRSKKYPLLIQVYGGPCSQSVKSVFAVNWITYLASKEGIVIALVDGRGTAFQGDKFLHAVYRKLGVYEVEDQLTAVRKFIEMGFIDEERIAIWGWSYGGYVSSLALASGTGLFKCGIAVAPVSSWEYYASIYSERFMGLPTKDDNLEHYKNSTVMARAEYFRNVDYLLIHGTADDNVHFQNSAQIAKALVNAQVDFQAMWYSDQNHGISSGRSQNHLYTHMTHFLKQCFSLSD
Question: How did the “cleavage of fluorescence-quenched peptide (FRET-quench assay)” value [3] turn out when B3 was run?
Answer: The value was “purified recombinant mouse FAP protein cleaved the GP but not GG or EP probes”.

Question: And the “catalytic efficiency (Michaelis-Menten kinetics)” value [2]?
Answer: Its value is “mouse FAP exhibited a lower catalytic efficiency than human FAP, mainly due to a reduced kcat”.

Question: What about the “cleavage of fluorescence-quenched peptide (FRET-quench assay)” value [2] of the same protein?
Answer: The value was “purified recombinant mouse FAP protein cleaved the GP but not GG or EP probes”.
